The record followed here is patent publication US20250263697, “COMPOSITIONS AND METHODS OF MODULATING RNA AND PROTEIN INTERACTIONS” (The Regents of the University of California, published 2025).

The data set addresses NSP12 (RNA-dependent RNA polymerase) (SARS-CoV-2, UniProt P0DTD1 P0DTD1:4393-5324). The data set is described as follows: FP.

B1: Scov2_7431_7555_RNA (ssRNA)
RNA: GGGCGAAAACGCCCCAUUUUAUUAUGUAUGGAAAAGUUAUGUGCAUGUUGUAGACGGUUGUAAUUCAUCAACUUGUAUGAUGUGUUACAAACGUAAUAGAGCAACAAGAGUCGAAUGUACAACUAUUGUUAAUGGUGUU
The molecule B1 had a Kd of 17 nM.
